{"source": "paper PMC10589136", "about": "“Prenylation of dimeric cyclo-L-Trp-L-Trp by the promiscuous cyclo-L-Trp-L-Ala prenyltransferase EchPT1” (Applied Microbiology and Biotechnology, 2023)", "proteins": {"B1": {"name": "EchPT1 (Aspergillus ruber) (protein)", "chain": "MPSEVLTSYYDYPTHDQEAWWRDTGPLFGRFLKGAGYDVHTQYQYLVFFIKNILPSLGPYPARWRSTITPTGLPIEYSLNFQLNSRPLLRIGFEPLSRFSGTPQDPYNKIAAADLLNQLSKLQLHEFDTQLFNHFTNEFELSKSESESLQKQGGINGKSTVRSQTAFGFDLKGGRVAVKGYAFAGLKNRATGTPVGQLISNSIRNLEPQMHCWDSFSILNSYMEESDGWNEYSFVSWDCVDIERSRLKLYGVHNAVTWDKVKEMWTLGGRIENNATIKTGLELLQHMWSLLQINEGDRDYKGGFAADNGGKTLPIIWNYELNKGSPHPAPKFYFPVHGENDLQVSKSISEFFTHLGWQDHARQYPHLLRQIYPNQNISQTERLQAWISFAYNERTGPYLSVYYYSAERPPWGSDQVK"}}, "assay_in_all_cases": "purified protein", "key": {"[1]": {"substrate": "CC(C)=CCOP(=O)(O)OP(=O)(O)O", "conditions": "1 mM tetratryptomycin A (3) as prenyl acceptor, 5 mM CaCl2, Tris-HCl pH 7.5, 37 °C, 30 min, formation of 3a2"}, "[2]": {"substrate": "O=C1N[C@@H](Cc2c[nH]c3ccccc23)C(=O)N2C3Nc4ccccc4C3(C34C[C@H]5C(=O)N[C@@H](Cc6c[nH]c7ccccc67)C(=O)N5C3Nc3ccccc34)C[C@@H]12", "conditions": "1 mM DMAPP, 5 mM CaCl2, Tris-HCl pH 7.5, 37 °C"}, "[3]": {"substrate": "O=C1N[C@@H](Cc2cn(C34C[C@H]5C(=O)N[C@@H](Cc6c[nH]c7ccccc67)C(=O)N5C3Nc3ccccc34)c3ccccc23)C(=O)N[C@H]1Cc1c[nH]c2ccccc12", "conditions": "1 mM DMAPP, 5 mM CaCl2, Tris-HCl pH 7.5, 37 °C, 30 min, formation of monoprenylated 4a1"}, "[4]": {"conditions": "20 min, formation of diprenylated 5a2"}, "[5]": {"conditions": "30 min, formation of diprenylated 3a2"}}}
{"protein": "B1", "values": [{"measurement": "Km", "setting": "[1]", "result": "50 ± 7", "unit": "µM"}, {"measurement": "kcat", "setting": "[1]", "result": "0.03 ± 0.002", "unit": "s⁻¹"}, {"measurement": "kcat/Km", "setting": "[1]", "result": 600, "unit": "M⁻¹ s⁻¹"}, {"measurement": "Km", "setting": "[2]; [4]", "result": "50 ± 5", "unit": "µM"}, {"measurement": "kcat", "setting": "[2]; [4]", "result": "0.03 ± 0.001", "unit": "s⁻¹"}, {"measurement": "kcat/Km", "setting": "[2]; [4]", "result": 600, "unit": "M⁻¹ s⁻¹"}, {"measurement": "Km", "setting": "[2]; [5]", "result": "60 ± 7", "unit": "µM"}, {"measurement": "kcat", "setting": "[2]; [5]", "result": "0.05 ± 0.0003", "unit": "s⁻¹"}, {"measurement": "kcat/Km", "setting": "[2]; [5]", "result": 833, "unit": "M⁻¹ s⁻¹"}, {"measurement": "Km", "setting": "[3]", "result": "250 ± 30", "unit": "µM"}, {"measurement": "kcat", "setting": "[3]", "result": "0.14 ± 0.01", "unit": "s⁻¹"}, {"measurement": "kcat/Km", "setting": "[3]", "result": 560, "unit": "M⁻¹ s⁻¹"}]}
